# According to the DeepSol protein solubility set:
# Assay: soluble on expression in E. coli; label from the status in PepcDB or PDB records
row,Sequence,soluble on expression in E. coli
1,MAKKVRSVHECSECGYSSPKWLGRCPECGSWGSMEERTVGESGGAARAAVSGAAPAGLTPTSPAVPIGKIVASQATSISTGIGELDRVLGNGIVPGSVVLMAGEPGVGKSTLLLEVASRWASMKEGDGTRTALYVTAEESAGQVRLRAERTAAVKDTLYLAAESNLDVVFGHVNQVKPSLLIVDSVQTMHAAGVEGVAGGVAQSRAVTAALTTLAKTSGIPILLVGHVTKDGNVAGPRVLEHLVDVVLNFEGDRHSSLRMLRGIKNRFGATDEVGCFEQQSDGIKEVPDPSGLFLSHRGSTPDGTAVTVAMDGVRPLLAEVQSLLVDAPSKNPRRVVTGLDANRVPMVLAVLSARAGRQTQGKDAYVATVGGMKVGEPATDLAVALATASALAKKPLPDKTVVLGEVGLAGEIRRVPNVDRRLAEAERLGYEKAVIPGGSGIKQTSLRVIEASTLAEALAAVSLLEHHHHHH,not soluble
2,MAKLFAYQIGQNPRIQTDLLVDPQLFEDEHGCMGAVGFGLADCVQTGMFTDIEVIKRYLHEATYVFINGDFDRLSYLEIGIALSLGKTLYVITMNPNVTKEDLGIPFDNATIEFLSPSAFTERIHETEAAEN,not soluble
3,MAKNGGFSLFAKKEKRFIFEGRHSASDKLVNGEVSAFTEEEARKKLAKRGIRPLQITRVKTSSKRKITQEDITVFTRQLSTMIKAGLPLMQAFEIVARGHGNPSMTEMLMEIRGEVEQGSSLSRAFSNHPKYFDRFYCNLVAAGETGGVLESLLDKLAIYKEKTQAIRKKVKTALT,not soluble
4,MAKNTLSFVCQNCGAAYNRWQGKCESCGEWNTLAEEDTSGSVPVSIRSKRKGRTFALESLAGKSPDAPRLSSGMTELDRVTGGGFVRGSVLLVGGDPGIGKSTLLTQATSLMARAGHRIVYISGEEAIAQVRLRAERLGLSDAPVQLAAETSVEDIVSTLSEGAVPRLIVIDSIQTMWTDTVESAPGTVTQVRASAQALIRFAKKTGAAIILVGHVTKDGQIAGPRVVEHMVDAVMSFEGEGSQQFRILRAVKNRFGPTDEIGVFEMTGLGLREVTNPSELFLSERDLGTPGTAVFAGIEGTRPVLVELQALVAPTSLGTPRRAVVGWDPSRLSMVLAVLEAHCGVKLSGHDVYLNVAGGLRIHEPAADLAAAAALVSSLVNAQLPTDAVYFGEISLSGVVRPVAQTPARLKEAAKLGFQRAVLPESARGEAGGDAGLSLNAVNSLTTLVAEIAARGSRRGESGGSAEKNATPARFRRGEGLEHHHHHH,not soluble
5,MAKPFTPEQREELKTRIVELVHQDGRVTIRQLSDETGISRASVGRLCIELVASGDVYNSGYGLFPSEQARKDWQSARKKLSRVKVRKPVVVDPDLIWSLPDGEIRRYDRRLNIICRECRKSEAMQRVLAFYQGNFQEAIL,not soluble
6,MAKPIPVKVVVLTTFEIGAVTGDRPGEFQPWVEGLPLTETIAVPGLRHPARYSPKDGVLGVMTDMRARARESVAALLLDKRFDFSKTYWLVAGIAGVDPKAASIGSAAWARYVVDADPIYEVDDREIPADWPYGLYALETERPNVKGSAEGSSGMVWALNWRLVDWAYGLTAKVEIPDHPGLAALRAPYVGDPNAQRPPFVLKGEALGATRFWHGAKRTQWAQDWVKLWTDGAGVFVMTDCEDQGILDVLDLYAKAGRVDFQRVMVLRTASNYSRPPLGAPAFPRAFHDEGAVSAFDSAYRVGSVVVRELTARWDRYEANTPDMTAIGGTAKLEHHHHHH,not soluble
7,MAKPLMAKATAVWLVDNTTISFKQIADFVGMHELEIQGIADGDVAAGVKGFDPIANNQLTQEEIDKAEQNPLHKLKLKFNPAAAGEEKRRGPRYTPLSKRQDRPNAILWLVKFHPELSDGQIAKLVGTTKPTIQSIRERTHWNISNMQPIDPVALGLCRQSELDSVVQKAAAKKAAEGGVMSDDERRKLVSTEQSLGMDTGPRIPTAIEGLENFSLSEPISTSDDDEEDHRSIADADSFFNLPKGGTDDEDEDDDPRYLEHHHHHH,soluble
8,MAKPSTSLLKRRLDIAEIVRKNGEIKVDDLAEMLSVSGVTIRNDLNYLEQQGYLKRSFGGAIYTAQPVRAAVSHEVVQSQALEHSVELELAKQVARLVCDDDTVFLGAGEVLRKALPFLGDYRDLCLIINDLSHVAPARDYIDGEIVLLGGVLGHSGQALGGEIAIQSLQQFQPSCCLVMVDHISEDGTLNVKNESAAALLSECLRLSGQSIAVVAQRPIHDVARYPVGKLNTLSAIITPQIVAAEYHSRFLADGLTNSYTNNECLTWINPTLHQARLEHHHHHH,not soluble
9,MAKQELGTKRVDPETGKKFYDLNRDPIVSPYTGISYPRSYFEVAAAEANSEEEVDTEELDTALEKSAFMLLEDDGDDPKDDDLPDLEDSDVDLGDDDDTFLSHDEDDEDDDVTDILGGGVSKDDDS,not soluble
10,MAKRDYYEVLGVSRDAEEREIKKAYKRLAMKFHPDRQSEDKNAEEKFKEAKEAYEILTDAQKRAAYDQYGHAAFEQGGMGGGGFGGGGGGADFSDIFGDVFGDIFGGGRRQQRASRGSDLRYNMDLTLEEAVRGVTKEIRIPTLDECDVCHGSGAKPGSSPVTCPTCHGAGQVQMRQGFFTVQQACPHCHGRGQIIKDPCNKCHGHGRVEKSKTLSVKIPAGVDTGDRIRLSGEGEAGEHGAPSGDLYVQVQVKAHPIFEREGNNLYCEVPINFAMAALGGEIEVPTLDGRVKLKIPAETQTGKMFRMRGKGVKSVRGGSQGDLLCRVVVETPVSLSEKQKQLLRELEESFVGAAGEKNSPRAKSFLDGVKKFFDDLTR,not soluble
11,MAKRIQFSTVGGPEVLEYVDFEPEAPGPQAVVVRNKAIGLNFIDTYYRSGLYPAPFLPSGLGAEGAGVVEAVGDEVTRFKVGDRVAYGTGPLGAYSEVHVLPEANLVKLADSVSFEQAAALMLKGLTVQYLLRQTYQVKPGEIILFHAAAGGVGSLACQWAKALGAKLIGTVSSPEKAAHAKALGAWETIDYSHEDVAKRVLELTDGKKCPVVYDGVGQDTWLTSLDSVAPRGLVVSFGNASGPVSGVNLGILAQKDSVYVTRPTLGSYANNAQNLQTMADELFDMLASGKLKVDGIEQYALKDAAKAQIELSARRTTGSTILIP,soluble
12,MAKRIVAMSSTHIAMLDAIGEVRCITGVSGIDYISNPDIQARRDSIGDVGYEGNINYELLLSLDPDLVLLYGVNGASAMESKLEELDIPFMYVGDYLEESPLGKAEWMVVLSEVTGKREKGEKAFAAIPVRYNALKKKVADSTLEHHHHHH,soluble
13,MAKWLRDYLSFGGRRPPPQPPTPDYTESDILRAYRAQKNLDFEDPYEDAESRLEPDPAGPGDSKNPGDAKYGSPKHRLIKVEAADMARAKALLGGPGEELEADTEYLDPFDAQPHPAPPDDGYMEPYDAQWVMSELPGRGVQLYDTPYEEQDPETADGPPSGQKPRQSRMPQEDERPADEYDQPWEWKKDHISRAFAVQFDSPEWERTPGSAKELRRPPPRSPQPAERVDPALPLEKQPWFHGPLNRADAESLLSLCKEGSYLVRLSETNPQDCSLSLRSSQGFLHLKFARTRENQVVLGQHSGPFPSVPELVLHYSSRPLPVQGAEHLALLYPVVTQTP,soluble
14,MALDVKKYPFIKSLDDELKKYGGGITLTDLLLNSTTLIDQAKDRIQKTKSGDELPHYVSYNEPVLVFYTTLLSLAILNDVKLIRRYAYAEAKQFRSLLHTENEENLLEISKLLDLKINRCDPIKFYLEKKRRIIQKEFCVHFIDYLKYTKDLKEDWKLSGQILHKGYVYLDKNQLIGLIAESIKSKIVEMIRPLNLKEIPEKLKSLIERRGI,soluble
15,MALIEYNPPLEPYLDIIYQDNHLCVVNKPSGLLSVPGNQPQYYDSAMSRVKEKFGFCEPAHRLDMATSGIIVFALSKAADRELKRQFREREPKKHYQAIVWGHLENDYGEVNLPMICDWENRPRQRLDFVLGKRAVTKFEVLARLPNNSTRVKLTPVTGRSHQLRLHMLALGHPILGDKFYSHPQAKVMSPRLCLHAEELTITHPITGETMTFNAKSDFLEHHHHHH,not soluble
16,MALLVAKAYKIIDRIKDAESRPDRLTNKDAGDVYRLFMGFPAAGVAASWHALTSDQRVGEVSTTGLALLRELFAGPRSPGANMAVAALAGDVPEDRVRQVCRAYVNRLSA,not soluble
17,MALNFLSYDDDFCGYCGAILELPAQAPATVSCKVCSTRWAVKERVDQVVSRVEKIYERTVADTDGIENDESADAVVDHICTKCGHSKASYSTMQTRSADEGQTVFYTCLKCKKKDIEYS,not soluble
